Here are results for 7 molecules from patent US20250074943A1 (Amgen, published 2025).

B1: PepSP1583 (peptide)
peptide: Ac-AETVEFWWCNGNSENWTCTWGG-{Ttds″-K(Ttds-Ttds-PEG3)}
modifications: disulfide 9-18 (inferred); not fully specified; printed as [Ac-AETVEFWWCNGNSENWTCTW-GG-Ttds-K(Ttds-Ttds-PEG3)]2-PEG4-DBCO-; also: dimer linked via PEG4-DBCO-FEA
notes: also called dimeric FEA derivative of PepSP1489
B2: PepSP1582 (peptide)
peptide: Ac-AETVEFWWCNGNSENWTCTWGG-{Ttds″-K(PEG4-PEG3)}
modifications: disulfide 9-18 (inferred); also: dimer linked via PEG4-DBCO-FEA
notes: also called dimeric FEA derivative of PepSP1488
B3: PepSP1538 (peptide)
peptide: Ac-AETVEFWWCNGNSENWTCTWGG-{Ttds″-K(PEG4-DBCO-FEA)-NH2}
modifications: disulfide 9-18 (inferred)
notes: also called monomeric Fluoroethylazide (FEA) derivative of PepSP1462
B4: PepSP1581 (peptide)
peptide: Ac-AETVEFWWCNGNSENWTCTWGG-{Ttds″-K(PEG3)}
modifications: disulfide 9-18 (inferred); also: dimer linked via PEG4-DBCO-FEA
notes: also called dimeric FEA derivative of PepSP1487

Numbered stars: 1 amine (or outer) side, 2 acyl side, 3 side chain; on linkers, the order of the positions; unused ones are H or OH. Bridge positions count the residues as written; N and C are the ends. Primed or numbered codes have the meaning given here. K(PEG4-DBCO-FEA) = Lys whose side chain carries PEG4-DBCO conjugated to fluoroethylazide (FEA); Ttds = non-peptide spacer, O=C(CCC(=O)[*:2])NCCCOCCOCCOCCCN[*:1]; Ttds″ = trioxatridecan-succinamic acid linker

The first assay deals with T1, recombinant DLL3 ectodomain (rhDLL3-Fc) (human, UniProt Q9NYJ7 27-492, biotinylated (NHS-LC-LC-biotin) in the BLI and SPR assays).
T1 construct: also called rDLL3-Fc; recombinant human DLL3 (rDLL3); not shown: Fc part
T1 sequence: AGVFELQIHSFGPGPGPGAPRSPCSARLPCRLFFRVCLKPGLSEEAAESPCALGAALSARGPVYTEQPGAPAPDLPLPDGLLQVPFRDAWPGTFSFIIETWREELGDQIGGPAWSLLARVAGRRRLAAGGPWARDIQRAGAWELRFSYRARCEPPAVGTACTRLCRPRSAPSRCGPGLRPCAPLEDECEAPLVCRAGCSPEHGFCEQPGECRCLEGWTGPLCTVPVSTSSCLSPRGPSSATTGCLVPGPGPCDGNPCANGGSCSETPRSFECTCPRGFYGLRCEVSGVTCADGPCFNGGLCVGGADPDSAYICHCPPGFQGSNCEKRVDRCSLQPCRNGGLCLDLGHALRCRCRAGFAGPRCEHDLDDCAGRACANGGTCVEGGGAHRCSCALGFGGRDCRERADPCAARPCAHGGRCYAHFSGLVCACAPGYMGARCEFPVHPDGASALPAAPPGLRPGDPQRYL
The assay can be described thus: kinetic assay, method not told for this table (BLI, SPR or flow cytometry). (In general: In flow cytometry, cells or beads pass a laser one at a time.)
Regarding Ac-AETVEFWWCNGNSENWTCTWGG-{Ttds-K(Ttds-Ttds)-NH2} (disulfide 9-18 (inferred), also called PspSP1342) [PepSP1342], the RT was 199.
Still for that read-out and setting: to Ac-AETVEFWGCTGTWGNETCWWGG-{Ttds-Lys-NH2} (disulfide 9-18 (inferred)) [PepSP1321] belongs 369; to Ac-AETVEFWWCNGNSENWTCTWGG-{Ttds-Lys-NH2} (disulfide 9-18 (inferred)) [PepSP1324], 189.

In a further assay the target is T1, recombinant DLL3 ectodomain (rhDLL3-Fc). The assay can be described thus: SPR off-rate, single point (300 nM peptide), biotinylated rhDLL3-Fc on SA chip. Here is the method:
The off-rate screening of the peptides was done using a Biacore T200 instrument (Cytiva, Sweden). […] Peptides were diluted at 300 nM in PBS-P+1× buffer (Cytiva, Sweden) supplemented with 1% DMSO and 0.1% BSA, then injected over the ligand for five minutes at 30 μl/min, finally dissociation allowed for 1 h. Sensorgrams were analyzed by Biacore T200 Evaluation Software 3.0 (Cytiva, Sweden): specific binding was obtained by subtracting unspecific binding to naked biosensors and a zero analyte concentration made of binding assay buffer (double referencing). Kinetic parameters of koff were measured using a global fitting according to 1:1 Langmuir binding isotherm equation.
One may read the koff as a measure of how fast the partners let go of each other. In the case of B1, the koff was determined as 3.2e-05 s⁻¹.
The same measure, in the same setting: to B2 belongs 3.6e-05 s⁻¹; to B3, 0.0039 s⁻¹; to B4, 3.4e-05 s⁻¹.
